Assay results published in PMC10397247.

Assays:
4H967-AA = molecular target: T1, 4H967-AA; assay: two-hybrid library CCmax; conditions: mean of both orientations;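 also: natural log of median RNA to DNA barcode read ratio; higher means stronger binding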
T1 chain: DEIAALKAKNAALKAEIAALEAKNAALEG

4H797-AA = molecular target: T2, 4H797-AA; assay: two-hybrid library CCmax;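 also: natural log of median RNA to DNA barcode read ratio; higher means stronger binding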
T2 chain: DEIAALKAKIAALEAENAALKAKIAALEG

4H687-AA = molecular target: T3, 4H687-AA; assay: two-hybrid library CCmax;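 also: natural log of median RNA to DNA barcode read ratio; higher means stronger binding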
T3 chain: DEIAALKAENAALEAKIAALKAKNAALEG

4H883-AA = molecular target: T4, 4H883-AA; assay: two-hybrid library CCmax; conditions: mean of both orientations;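 also: natural log of median RNA to DNA barcode read ratio; higher means stronger binding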
T4 chain: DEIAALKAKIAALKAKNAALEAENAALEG

4H918-AA = molecular target: T5, 4H918-AA; assay: two-hybrid library CCmax; conditions: mean of both orientations;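 also: natural log of median RNA to DNA barcode read ratio; higher means stronger binding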
T5 chain: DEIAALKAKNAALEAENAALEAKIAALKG

4H717-AA = molecular target: T6, 4H717-AA; assay: two-hybrid library CCmax; conditions: mean of both orientations;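 also: natural log of median RNA to DNA barcode read ratio; higher means stronger binding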
T6 chain: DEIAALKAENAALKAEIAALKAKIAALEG

4H953-AA = molecular target: T7, 4H953-AA; assay: two-hybrid library CCmax; conditions: mean of both orientations
T7 chain: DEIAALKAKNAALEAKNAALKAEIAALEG

O8-bA = molecular target: T8, O8-bA; assay: two-hybrid library CCNG1
T8 chain: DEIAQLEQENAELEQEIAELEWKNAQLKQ

O7-bA = molecular target: T9, O7-bA; assay: two-hybrid library CCNG1
T9 chain: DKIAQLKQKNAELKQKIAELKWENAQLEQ

O6-bA = molecular target: T10, O6-bA; assay: two-hybrid library CCNG1
T10 chain: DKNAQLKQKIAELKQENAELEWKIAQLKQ

O5-bA = molecular target: T11, O5-bA; assay: two-hybrid library CCNG1
T11 chain: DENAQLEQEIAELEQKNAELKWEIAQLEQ

O4-bA = molecular target: T12, O4-bA; assay: two-hybrid library CCNG1
T12 chain: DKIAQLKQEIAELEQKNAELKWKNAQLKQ

O9-bA = molecular target: T13, O9-bA; assay: two-hybrid library CCNG1
T13 chain: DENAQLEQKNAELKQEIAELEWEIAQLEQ

4H3651-AA = molecular target: T14, 4H3651-AA; assay: two-hybrid library CCmax; conditions: mean of both orientations
T14 chain: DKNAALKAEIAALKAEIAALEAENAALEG

P2-AA-12HAA-R = molecular target: T15, P2-AA-12HAA-R; assay: two-hybrid library CCmax
T15 chain: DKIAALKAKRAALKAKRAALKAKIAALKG

4H3782-AA = molecular target: T16, 4H3782-AA; assay: two-hybrid library CCmax; conditions: mean of both orientations
T16 chain: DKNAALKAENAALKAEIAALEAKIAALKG

4H465-AA = molecular target: T17, 4H465-AA; assay: two-hybrid library CCmax; conditions: mean of both orientations
T17 chain: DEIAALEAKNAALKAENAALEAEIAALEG

4H_GCN4 = assay: two-hybrid library CCmax
4H355-AA = molecular target: T18, 4H355-AA; assay: two-hybrid library CCmax
T18 chain: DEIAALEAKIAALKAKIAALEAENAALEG

4H58-AA = molecular target: T19, 4H58-AA; assay: two-hybrid library CCmax; conditions: mean of both orientations
T19 chain: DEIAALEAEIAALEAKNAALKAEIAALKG

4H3705-AA = molecular target: T20, 4H3705-AA; assay: two-hybrid library CCmax; conditions: mean of both orientations
T20 chain: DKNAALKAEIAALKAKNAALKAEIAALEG

4H_BCR = molecular target: T21, 4H_BCR; assay: two-hybrid library CCmax; conditions: mean of both orientations
T21 chain: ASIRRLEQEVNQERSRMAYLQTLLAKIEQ

4H535-AA = molecular target: T22, 4H535-AA; assay: two-hybrid library CCmax
T22 chain: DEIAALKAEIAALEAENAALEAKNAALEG

GCN2_T = assay: two-hybrid library CCmax
4H486-AA = molecular target: T23, 4H486-AA; assay: two-hybrid library CCmax; conditions: mean of both orientations
T23 chain: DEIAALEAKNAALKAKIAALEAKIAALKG

4H895-AA = molecular target: T24, 4H895-AA; assay: two-hybrid library CCmax; conditions: mean of both orientations
T24 chain: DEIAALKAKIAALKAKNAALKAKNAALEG

4H_APH = molecular target: T25, 4H_APH; assay: two-hybrid library CCmax
T25 chain: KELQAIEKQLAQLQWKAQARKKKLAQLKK

4H949-bN = molecular target: T26, 4H949-bN; assay: two-hybrid library CCNG1
T26 chain: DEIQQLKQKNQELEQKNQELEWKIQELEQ

4H730-bN = molecular target: T27, 4H730-bN; assay: two-hybrid library CCNG1
T27 chain: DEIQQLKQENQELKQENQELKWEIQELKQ

4H3364-bN = molecular target: T28, 4H3364-bN; assay: two-hybrid library CCNG1
T28 chain: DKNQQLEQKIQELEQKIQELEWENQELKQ

4H3381-bN = molecular target: T29, 4H3381-bN; assay: two-hybrid library CCNG1
T29 chain: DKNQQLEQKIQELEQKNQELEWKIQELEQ

4H796-bN = molecular target: T30, 4H796-bN; assay: two-hybrid library CCNG1
T30 chain: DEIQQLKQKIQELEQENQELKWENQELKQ

4H349-bN = molecular target: T31, 4H349-bN; assay: two-hybrid library CCNG1
T31 chain: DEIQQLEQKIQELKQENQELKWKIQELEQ

4H56-bN = molecular target: T32, 4H56-bN; assay: two-hybrid library CCNG1
T32 chain: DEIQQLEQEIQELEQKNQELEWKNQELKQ

4H932-bN = molecular target: T33, 4H932-bN; assay: two-hybrid library CCNG1
T33 chain: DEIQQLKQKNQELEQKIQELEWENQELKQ

4H3297-bN = molecular target: T34, 4H3297-bN; assay: two-hybrid library CCNG1
T34 chain: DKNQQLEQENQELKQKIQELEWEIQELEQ

4H3041-bN = molecular target: T35, 4H3041-bN; assay: two-hybrid library CCNG1
T35 chain: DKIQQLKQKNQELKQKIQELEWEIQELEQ

4H2859-bN = molecular target: T36, 4H2859-bN; assay: two-hybrid library CCNG1
T36 chain: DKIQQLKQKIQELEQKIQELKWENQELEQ

4H2931-bN = molecular target: T37, 4H2931-bN; assay: two-hybrid library CCNG1
T37 chain: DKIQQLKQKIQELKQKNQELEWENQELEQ

4H2760-bN = molecular target: T38, 4H2760-bN; assay: two-hybrid library CCNG1
T38 chain: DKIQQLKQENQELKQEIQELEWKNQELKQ

4H2961-AA = molecular target: T39, 4H2961-AA; assay: two-hybrid library CCmax; conditions: mean of both orientations
T39 chain: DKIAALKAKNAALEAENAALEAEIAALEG

4H3939-AA = molecular target: T40, 4H3939-AA; assay: two-hybrid library CCmax; conditions: mean of both orientations
T40 chain: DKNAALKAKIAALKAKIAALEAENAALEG

4H2699-AA = molecular target: T41, 4H2699-AA; assay: two-hybrid library CCmax
T41 chain: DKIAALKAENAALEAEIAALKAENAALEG

4H2728-AA = molecular target: T42, 4H2728-AA; assay: two-hybrid library CCmax; conditions: mean of both orientations
T42 chain: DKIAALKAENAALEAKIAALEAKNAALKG

4H483-AA = molecular target: T43, 4H483-AA; assay: two-hybrid library CCmax; conditions: mean of both orientations
T43 chain: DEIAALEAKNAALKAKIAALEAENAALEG

4H2903-AA = molecular target: T44, 4H2903-AA; assay: two-hybrid library CCmax; conditions: mean of both orientations
T44 chain: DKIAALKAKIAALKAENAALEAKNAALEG

4H446-AA = molecular target: T45, 4H446-AA; assay: two-hybrid library CCmax; conditions: mean of both orientations
T45 chain: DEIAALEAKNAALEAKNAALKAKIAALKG

4H3414-AA = molecular target: T46, 4H3414-AA; assay: two-hybrid library CCmax; conditions: mean of both orientations
T46 chain: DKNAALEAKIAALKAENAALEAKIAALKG

4H3629-AA = molecular target: T47, 4H3629-AA; assay: two-hybrid library CCmax; conditions: mean of both orientations
T47 chain: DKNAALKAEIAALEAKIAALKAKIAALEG

4H3049-AA = molecular target: T48, 4H3049-AA; assay: two-hybrid library CCmax; conditions: mean of both orientations
T48 chain: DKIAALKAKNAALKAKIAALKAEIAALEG

4H341-AA = molecular target: T49, 4H341-AA; assay: two-hybrid library CCmax; conditions: mean of both orientations
T49 chain: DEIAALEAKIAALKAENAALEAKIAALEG

4H464-AA = molecular target: T50, 4H464-AA; assay: two-hybrid library CCmax; conditions: mean of both orientations
T50 chain: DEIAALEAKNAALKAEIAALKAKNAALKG

4H380-AA = molecular target: T51, 4H380-AA; assay: two-hybrid library CCmax; conditions: mean of both orientations
T51 chain: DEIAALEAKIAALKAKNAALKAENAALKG

4H2774-AA = molecular target: T52, 4H2774-AA; assay: two-hybrid library CCmax; conditions: mean of both orientations
T52 chain: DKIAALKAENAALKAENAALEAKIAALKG

4H3595-AA = molecular target: T53, 4H3595-AA; assay: two-hybrid library CCmax; conditions: mean of both orientations
T53 chain: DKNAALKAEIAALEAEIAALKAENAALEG

4H3129-AA = molecular target: T54, 4H3129-AA; assay: two-hybrid library CCmax; conditions: mean of both orientations
T54 chain: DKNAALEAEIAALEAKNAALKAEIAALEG

4H3969-AA = molecular target: T55, 4H3969-AA; assay: two-hybrid library CCmax; conditions: mean of both orientations
T55 chain: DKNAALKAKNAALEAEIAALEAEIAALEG

4H63-AA = molecular target: T56, 4H63-AA; assay: two-hybrid library CCmax; conditions: mean of both orientations
T56 chain: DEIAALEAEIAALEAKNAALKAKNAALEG

P9bH1 = molecular target: T57, P9bH1; assay: two-hybrid library CCNG1
T57 chain: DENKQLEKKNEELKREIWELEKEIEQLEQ

Chain of 4H_GCN4 (chain, as listed by the source): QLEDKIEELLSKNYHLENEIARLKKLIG

DEIAALKAENAALEAKIAALKAKNAALEG [4H687-AA]
interaction score (4H967-AA): 1.97 | interaction score (4H797-AA): -1.46 | interaction score (4H687-AA): -1.1 | interaction score (4H883-AA): -1.77 | interaction score (4H918-AA): -0.666 | interaction score (4H717-AA): -0.487 | interaction score (4H953-AA): -1.39

DKIAQLKQEIAELEQKNAELKWKNAQLKQ [O4-bA]
interaction score (O8-bA): -1.68 | interaction score (O7-bA): 0.351 | interaction score (O6-bA): 1.17 | interaction score (O5-bA): -0.0834 | interaction score (O4-bA): 0.158 | interaction score (O9-bA): -0.232

DEIAALEAKIAALKAKIAALEAENAALEG [4H355-AA]
interaction score (4H3651-AA): 0.086 | interaction score (P2-AA-12HAA-R): -2.32 | interaction score (4H3782-AA): 0.393 | interaction score (4H465-AA): -1.96 | interaction score (4H_GCN4): -1.7 | interaction score (4H355-AA): 0.592 | interaction score (4H58-AA): 1.08 | interaction score (4H3705-AA): -1.7 | interaction score (4H_BCR): -1.56 | interaction score (4H535-AA): -0.775 | interaction score (GCN2_T): -2.04 | interaction score (4H486-AA): -0.342 | interaction score (4H895-AA): -0.0681 | interaction score (4H_APH): -0.88

DKNQQLEQKIQELEQKIQELEWENQELKQ [4H3364-bN]
interaction score (4H949-bN): -1.23 | interaction score (4H730-bN): 0.217 | interaction score (4H3364-bN): 0.858 | interaction score (4H3381-bN): -0.731 | interaction score (4H796-bN): 0.309 | interaction score (O5-bA): -0.987 | interaction score (4H349-bN): -0.763 | interaction score (4H56-bN): -0.197 | interaction score (4H932-bN): -1.67

DKIQQLKQENQELKQEIQELEWKNQELKQ [4H2760-bN]
interaction score (4H3297-bN): -1.61 | interaction score (4H949-bN): 0.472 | interaction score (4H730-bN): -0.45 | interaction score (4H3041-bN): -0.517 | interaction score (4H2859-bN): 1.03 | interaction score (4H3364-bN): -0.234 | interaction score (4H3381-bN): 0.638 | interaction score (4H796-bN): 0.11 | interaction score (4H349-bN): -1.63 | interaction score (4H56-bN): -0.482 | interaction score (4H932-bN): -1.77 | interaction score (4H2931-bN): -0.107 | interaction score (4H2760-bN): -0.578

DKIAALKAENAALEAEIAALKAENAALEG [4H2699-AA]
interaction score (4H2961-AA): -1.89 | interaction score (4H3939-AA): -1.77 | interaction score (4H2699-AA): -1.06 | interaction score (4H2728-AA): -0.707 | interaction score (4H483-AA): 0.687 | interaction score (4H2903-AA): -1.69 | interaction score (4H446-AA): -1.2 | interaction score (4H3414-AA): -0.748 | interaction score (4H3629-AA): -0.9 | interaction score (4H3049-AA): 0.526 | interaction score (4H341-AA): -1.58 | interaction score (4H464-AA): 2.17 | interaction score (4H3782-AA): -0.882 | interaction score (4H380-AA): -1.08 | interaction score (4H2774-AA): -1.26 | interaction score (4H3595-AA): -1.96 | interaction score (4H3129-AA): 1.24 | interaction score (4H3969-AA): -1.41 | interaction score (4H63-AA): -1.27

DENKQLEKKNEELKREIWELEKEIEQLEQ [P9bH1]
interaction score (P9bH1): -0.482
